Measurements from the RNAGym collection of RNA variant scans (doi:10.7554/elife.80360).

B1: HDV Ribozyme (parent)
chain: GGCCGGCAUGGUCCCAGCCUCCUCGCUGGCGCCGGCUGGGCAACAUUCCGAGGGGACCGUCCCCUCGGUAAUGGCGAAUGGGACCCA

Variants of: B1
Assay: self-cleavage, relative activity (ratio to wild type); higher = more cleavage; co-transcriptional

Variant | self-cleavage
C13A C32A | 0.0326
U12C G53A | 0.369
U12G G52A | 1.05
U12A U46C | 0
U12A U46A | 0.361
U12G G67A | 0.923
U12G G67C | 0.962
C13G G59C | 0.104
U12C A45C | 0.0504
U12A C57G | 0.208
C13A G25U | 0.0791
U12A U27A | 0.791
C13G U79C | 0
C13U A16U | 1.11
U12G C85U | 0.787
U12G C85A | 0.712
U12C A43C | 0.0831
U12C A43U | 0.0923
C13U A77C | 0.293
C13A U27G | 0.594
C13A U27C | 0.594
G11U G76C | 0.532
U12G C86U | 0.403
U12A U65C | 0.506

Variant | self-cleavage
U12A A83U | 0.674
U12A A83C | 0.35
C13A C30U | 0.181
C13G G55A | 0.0875
U12C G68A | 0.231
U12C G68C | 0.145
C13G C32G | 0
U12G G28C | 0
U12A G67C | 0.244
U12G U69C | 1.35
U12A C26U | 0.982
U12A C26A | 0.745
U12A U60G | 0
C13A G53A | 0.229
C13A G53U | 0.138
U12A G52U | 0.604
U12C G73C | 0.116
U12A C84A | 0.506
C13A C58U | 0.415
C13A U46G | 0.0594
U12A G28C | 0
C13G G76C | 0.217
U12A U72A | 0.0831
U12G G25A | 0.151

Variant | self-cleavage
C13G C14G | 0.166
U12G A45U | 0.684
U12G C41G | 0.554
U12G C41A | 1.06
C13G C84U | 0.095
G11U U79C | 0.0652
U12C C48A | 0.762
U12C C48G | 0.185
U12C G28U | 0.0378
C13G G82A | 0.0519
U12A U23G | 0.0791
C13G C63U | 0
C13A C75U | 0.163
G11U C66G | 0.397
G11U C66U | 0.249
C13A C64A | 0.264
G11U G80U | 0.113
G11U G80C | 0
C13G U37C | 0.237
U12C G74U | 0.0692
G11U U27A | 0.511
U12C A71U | 0.453
U12A U79A | 0.0791
U12C G17U | 0.308

Variant | self-cleavage
U12G C75G | 0
C13U A78G | 0.178
U12C C33G | 0.101
U12C C33U | 0.32
U12A C19A | 0.0287
C13G C15G | 0.122
U12G A87U | 0.813
U12A G34C | 0.208
U12C C63A | 0.268
U12C C63U | 0.389
U12C U47G | 0.119
U12G G17C | 0.192
U12A G80A | 0.108
U12C A42U | 0
U12C G67A | 0.229
U12C G67C | 0.256
U12G U46C | 1.02
C13G G39U | 0.0361
C13G G39C | 0.0462
C13A C22U | 0.0583
U12C A51G | 0.369
U12C A51C | 0.378
U12G G35A | 0.19
G11U G54U | 0.422

Variant | self-cleavage
C13U C30U | 0.261
C13U C30G | 0.198
U12C U27G | 0.312
C13G C62U | 0.0369
G11U C58U | 0.447
U12C C44U | 0.0692
U12A G73U | 0.0997
U12G C36G | 0
U12C C57G | 0.0831
C13A G81U | 0.22
C13U C32U | 0.584
C13U C32G | 0.101
U12A C62U | 0.252
U12G C64G | 0.492
U12A C41G | 0.138
C13A C57U | 0.175
U12G C58A | 0.962
G11U C63G | 0.248
U12A C66A | 0.193
C13U A56C | 0.677
C13G C85U | 0
C13G C85A | 0
C13U A51U | 0.802
U12G G74U | 0.453

Variant | self-cleavage
U12G G74A | 0.18
G11U U47G | 0.246
U12C C19A | 0.0361
U12C C30G | 0.0573
G11U G34U | 0.0252
C13A U65C | 0.203
U12C C62A | 0.57
U12C C62U | 0.348
U12G G55A | 0.703
U12A C61A | 0.443
U12A C86G | 0.32
C13G G68U | 0.0978
C13G G68C | 0
C13A A78U | 0.0449
C13A G29U | 0.0782
C13A G35C | 0.0339
C13G C44G | 0
U12C U72A | 0.107
G11U G53A | 0.427
U12G G53C | 0.831
G11U G38C | 0
G11U G67U | 0.168
C13G A87U | 0.0911
G11U U20A | 0.0252

Variant | self-cleavage
U12C U79A | 0.0615
U12C U79C | 0.133
U12C U79G | 0.0791
C13A G82U | 0.904
U12G C84G | 0.256
C13A A45U | 0.128
C13A A45C | 0.0707
U12G C48G | 0.831
U12A G29U | 0.113
U12A G29A | 0.113
C13U A71C | 0.639
C13U C33A | 0.0923
G11U U23C | 0.554
G11U U23A | 0.437
U12G C33A | 0
U12G C33U | 0.277
C13G G52U | 0
C13A U79G | 0.151
U12G A16G | 1.06
U12A G17C | 0.0504
C13A C21G | 0.0332
C13A U69G | 0.314
C13G U23G | 0
